Experiment: soluble on expression in E. coli; label from the status in PepcDB or PDB records

Row | Sequence | soluble on expression in E. coli
1 | MGSDKIHHHHHHMPIDLREFYQASDPSRTLFVNNSSDGKYYIDFSSVRGGDILGKLKQKITFFKPNEPTCTLFTGHIGCGKSTELLRLQAELEKLGFHVVYFESSDDLEMTDVDIADVLLAIARRVSQSLDKIILESPNKFNELLQGAWKVLNSEVTGVKVKVPNVGDFGVTSEKEKLSLSVGIGEITAKMKNDPTLREKLNQYLAPQKTKLLEAINQELLEPAIAKLKQQGKNGLVVIVDNLDRIDNRAKPWGRPQQEYLFVDQGEFLTKLNCHLIYTMPLSLKFSNDYGMLTQRFPEDPKVLPMVPVHWSDGSLHAQGMALMQQMVLARAFPDMTPEERLNKVTEIFDSAASLERLCQMSGGHVRDVLRLLNTWIMEEMSLPLTRDTLEQVIRSRQNEIMLPISEDEWQLLRHVKEKKKVSDDHGYQKLIRSRFVFEYRDCGESWFDVNPVLAEAKELQ | not soluble
2 | MGSDKIHHHHHHMANLLTINHLSYSRNLQLILKDLNLELPYGQIVGLLGTNGAGKTTLMRLIAGNYIDRKNSISINTETNSAVRKSLVSFTEQVGGWSGHPRIFKIGNFYDALYEDFNLTTFNQLLSNLNLSPDQRVNQLSKGNFRKLVIAVTLARQTDLYLLDEPFDGIDSMTRKKIISSIIQWKPENATVLVSDHHVGDIANLLDQVVIIKDQHVAAQEAADTIRETLGKDIETYYEDFYREEL | not soluble
3 | MDFEQLKQDVIAYSKTIGIDKIGFASASPFEELKQRLIQQQQLNYQSGFEEPDIEKRTNPQLLLPGAKSIIAIALAYPSKLKNAPLSKRGERRGIFCRASWGQDYHLVLRDRLQKLEAYLIEKLPDIEVKSMVDTGELSDRAVSERAGIGWSGKNCSIITPEFGSYVYLGEMITNVPFPPDKPIEDQCGGCTKCIDICPTGALIQGGQLDSKKCIAFLTQTKGFLPEEYRDKIGNRIYGCDTCQTVCPKNKGMDFHNHPEMEPDPELVKPLLTPLLTISNRDFKEKYGIMSGSWRGKKPLQRNAILALAHFKEASAIPDLIGVMKDDPRPVLRGTAAWALGKIGGDGVGEAIEKAMEREKDEEVLHEMNRGLELLAQKKE | not soluble
4 | MSLIEDCLRSYRFIAIDTEFPSTLRETTQHATDEERYMDMSFSVDRAKLIQLGLTLFDINGRIGGTWEINFSDFGVDDARNEKSIEFLRRNGLDLRKIREEGIRIEGFFSEMFWMLKKTRRNITWVTFHGSYDIAYLLKGFTGEALPVTSERFSKAVARVLGSVYDLKVMAGRCEGLSSRLGLETLAHEFGLNRVGTAHHAGSNNELTAMVFAKVLSPFPLFLRFGSLELRTIESEAIV | soluble
5 | MDIIRLGDTTSHGGTVIEAFGQTDLNGKPMAGVGHQVVCPLCKGTFPITEGSALLDVNGVPVALHGMKTACGASLIASGPLGAAEN | not soluble
6 | MDLLGKLFSRALKLSTLPTKKKRDAFSQQRKVLKKLLKKSANTQFGLRFNFYEILVQFSSGNKKVFYDFYKRRVPVYTYNTLYNEWWYRLKEGEADVTWPGKVQYFALSSGTSDASTKYIPITEQFLKANKKIGIRQLLSLAHYKLPKDLLGKGILMLGGSTHLHKTETYYEGDLSGIQASKIPFWFQYFYKPGSRIARNRDWESKLNDIVESAPDWDIGFIVGVPAWLQILLERIIARYQLKTIHDIWPNLTVFVHGGVAFDPYRKGFEKLLAKPIIYIETYLASEGFIAYQAGPGRKGMKLILDNGIFFEFVPFNEQNINASGDIVVNPKTLMIHEVEEGVDYVLLVSTCAGTWRYMIGDVIRFVDKAQAEIIITGRTKHFISLCGEHLSVDNMNQAIKLVAEELNIIIKEFTVSGIAHDTLFAHQWYIGTDHVIDPVVVSDLLDEKLKLLNDDYRVERTSALKEIFVTILPSQSFYDWMRYRGKEGGQNKFPRVLNKKLHEDWKAFLNQ | not soluble
7 | VAKMRFIDIGANLLDEMYTGQYNDKPYHPPDLSAVLERAWAAGLEKLMITAGSLKEARAALELAKTDERLYCTVGCHPTRCKEFEDHPGGPEAYLQELLEVLKEGQALGKVVAVGECGLVATDYERLHFCDADTQKKYFEAQFRLAKESGLPMFLHLRAAADDFLDITGRHLGDFPRGGVVHSFDGTAEEAARVLAVPQLAIGINGCSLKTDDNLAVVGGLPLERIMLETDCPWCEIRPTHAGRKHVSAEALAGVTGAKDRKKFMPGCQVKSRNEPANIRQVLEVVAGVKGRTDLEAVADVIFGNTERMFFPTA | not soluble
8 | SSVSGLKAELKFLASIFDKNHERFRIVSWKLDELHCQFLVPQQGSPHSLPPPLTLHCNITESYPSSSPIWFVDSEDPNLTSVLERLEDTKNNNLLRQQLKWLICELCSLYNLPKHLDVEMLDQPLPTGQNGTTEEVTSEEEEEEEEMAEDIEDLDHYEMKEEEPISGKKSEDEGIEKENLAILEKIRKTQRQDHLNGAVSGSVQASDRLMKELRDIYRSQSYKTGIYSVELINDSLYDWHVKLQKVDPDSPLHSDLQILKEKEGIEYILLNFSFKDNFPFDPPFVRVVLPVLSGGYVLGGGALCMELLTKQGWSSAYSIESVIMQINATLVKGKARVQFGANKNQYNLARAQQSYNSIVQIHEKNGWYTPPKEDG | not soluble
9 | MQHLDLQVVRKALKWSVGGERVWFCTVLTTYGSAPRAPGSLLAVNASGEWIGSLSGGCVEDDFLERVAAGGFPDPAVIVRYGEGDDPNSNIRLPCGGILDVLVENLAPDCDVQAHLRELESALLGQRRLLREVELGSGARSLRDDSSHGPRAERDGECVRLRVGAAQRLLLAGYSSVAHACAEFGKGLGFEVILCDPREEALRGVVLEGIEIRRELPSLFIADGGCHADTAVVALTHDPKIDDLAMLEAVRTEAFYIGVMGSRATSEKRFERLRRIGGLGDAELARIHAPIGLNLGSKTPAEIALAVLADILRIRNGIPRERL | not soluble
10 | FAKQKKESVISAISTVNPQELKVPSSNLTTALAGRMSGLIAFQTTGEPGKDNAQFFVRGATTFGYKKDPLILIDNIELSTDDLARLNVDDIAQFSIMKDATATALYGARGANGVILVTTKQGVAG | not soluble
11 | MKLSTSLEMPFRESTDPICSVCNFSSLIAPHFGGLVCSACASFFRRTVALNIHYLCKKDNQCKGMRKNCRACRFESCVKIAGMKRSLVKERKNLNNIPLYILNRRNETGNQGVVRAFVSSNQNRLENRLSLSPLTELPINDEMDVSKILKTTPSSLLKYYVEQVSHGKQFYMNTLNIRTKEELFEIVSYQSKVAAETCRTCPGVDLLDNRDILILRKYFQFSNIWIESTWKYWFSNDFSNDTEKFDIKLMEFIGQVKSTLLISLSRLKFNIFEFTAFKAICIWKLVYHETSRAMKIVAQEHYEGVTKALISYYQTYTLLDSMEIAIRVGEITLLVSSVFQMYHDMAKLYLHMGLPF | not soluble
12 | MVYDLAIIGGGINGCGIARDAAGRGHSVFLCEMNDLASGTSSWSTKLIHGGLRYLEYFEFRLVREALIERERLWQIAPHIIGPLRFVLPHHDGLRPAWRLRLGLFMYDYLGGRKLLPPTRSVDLAHDEVGKPLIPGRYTKGFEYSDCFVDDARLVVLTARDAAERGAEIRTRTRAVQVSQQGGIWQVTLEDVGSGARSTIQARALVNAAGPWVEGVLRSGAGVDARYKVRLVQGSHIVTRKLYDHDRAYIFQNADGRIVFAIPYQGDFTLIGTTDRDYHGDPSQVKATPEEIDYLCKAVSGYFAKPVTPADVVWTFSGVRPLYDDGASEAKAATRDYVFELDTPGGAPLLSIYGGKITTYRRLAEEALEKLSSYLKGGTAKQGWTAHQPLPGGDFPVDGGPALIGDLLREYPFLASAHASRLVHAYGTRARDVLGSAKSAADLGRDFGATLTEAEVRYLMSREWACSADDIVWRRSKLGLRLTPAAVAALDEWVIVHRAAEKPQQQAGGRALEHHHHHH | not soluble
13 | MAGDPMVTQNKKILIITGSFGNGHMQVTQSIVNQLNDMNLDHLSVIEHDLFMEAHPILTSICKKWYINSFKYFRNMYKGFYYSRPDKLDKCFYKYYGLNKLINLLIKEKPDLILLTFPTPVMSVLTEQFNINIPVATVMTDYRLHKNWITPYSTRYYVATKETKQDFIDVGIDPSTVKVTGIPIDNKFETPINQKQWLIDNNLDPDKQTILMSAGAFGVSKGFDTMITDILAKSANAQVVMICGKSKELKRSLTAKFKSNENVLILGYTKHMNEWMASSQLMITKPGGITITEGFARCIPMIFLNPAPGQELENALYFEEKGFGKIADTPEEAIKIVASLTNGNEQLTNMISTMEQDKIKYATQTICRDLLDLIGHSSQPQEIYGKVPLYARFFVKLEHHHHHH | not soluble
14 | VKTILFFILIFNSQYMSKRIGVAVVGLGSIGKTHVKALKDLEKETEFVKLVAVVDQIKAIAEKIGSEYGTPYYTTIDEVLRNSEVDVISIATPSYLHAPQAILAIEYGKHVIVEKPMATTLAGAREMVSRAERNEVKLGVIFQERYAPDIRRLKNDILKELGRIYLIESELKWYRDMKGYYKRDEIARSWRGMWNTEGGGVMTNQGIHTIDLMIWLNGEVEEVSGFVDNLTHDGIEVEDTAVAIMRYKNGALGTISQTVSMKPTTYQYRKIRVNGSNGFVEITDGSLSTVAIEGKIEESKSSVEYKKETIAQPGNLHKELLRDFLRALSEDNDFPINGKEGMKSLEVIKAVYLSSVNRQVVKLPLDVRIVV | soluble
15 | MSLADLFASPDDAAAGGAPDTAPLADRLRPRTLGDVVGQEHLTGPDGAIGRMVAAGRLSSIIFWGPPGTGKTTISRLLAHAVGMRFEPISAVFSGVADLKKVFAAAKDHARHGEKTLLFVDEIHRFNRAQQDSFLPFVENGTVTLVGATTENPSFELNAALLSRAQVLILRRLDAAALEQLLDRAEGLMERPLPLDPAAREALLASADGDGRFLLNQVETLYAIDIPEPLDPAGLSALLHRRVAVYDKDREGHYNLISALHKSLRGSDPQAALYYLARMLTAGEEPLYVLRRLVRFATEDIGLADPQAVVQCLAAKDAYDFLGSPEGELAIVQACLYCATAPKSNAAYMAMKASFRSARETGSLMPPMNIVNAPTKLMKQVGYGKNYQYDHDAAEGFSGANYWPEEMEAQTFYAPTDRGFEARVAERMAYWDRLRAERGEGHHHHHH | soluble
16 | MSLKITKVEVIPISTPMKRAQLMRGATLARIDGVLLKLHSDEGLVGIADAGDTSSWYRGETQDSITSMICDFFAPKVLLGEDPTKIEKIVGRMDILTRDNNQAKATVDFALHDLVGKRFGVPVYQLLGGKTIERIPLGLVLGAGEPEAVAEEALAVLREGFHFVKLKAGGPLKADIAMVAEVRRAVGDDVDLFIDINGAWTYDQALTTIRALEKYNLSKIEQPLPAWDLDGMARLRGKVATPIYADESAQELHDLLAIINKGAADGLMIKTQKAGGLLKAQRWLTLARLANLPVICGCMVGSGLEASPAAHLLAANDWIAQFPQENAGPLHIHDCLNSRDIDNDIALNVPRFEGGYLYPNDGPGLGIELNEDLVRRLVTPGKAARVVTAEGHHHHHH | soluble
17 | MKTTLIISTYNRPEALSVCLDSVRFQTVMPDEVIVGDDGSTSETKDLIESFKKDFPVPLIHLWQEDKGFRLAMMRNKSVAAATGDYIIEIDGDIFLHNKFVEDHKRLAKPGHYLRGTRVNLGQKLTEEICKSKVNRRIYPWTIGIQNRAETAIHSTPVSNFFADRYKKNVSSGLGCNMSFWRSDFLAINGYDEFFEGWGKEDDDLTHRLQRKGCKKRSLRFAGIVYHLWHGHESMESDQKNAEYFRKNNEKNIVYCENGVSKYLKQELEHHHHHH | soluble
18 | MAHHHHHHMGHKNSSNISSAPVPPPFYVLPGVPVPSLKPSNLDFSATSGKPILCAGWIAPHGNRSWSRRNVVYSSEIEIPVPQPCQVRVKIYAAGVNPADAHRTAVLPSSPEVGTSGKSRRASRHPRPPFKFPYVVGIEGAGVVESVGWAAASSGERDGSAGALTSANARDIRVGDRVAFLADLMQESGGTFCQYAVVDSDVLWKLPEVVCAPPPSTGGLVPGRLIDFVEAASLPAAAATAYIALFDKLRIETQRAIFISGASGGVGSAAVQLAHYFGLYVIASCSTPNVRYVQSLGADYVVDYTRADVVEEILTYTDNYGVDYLLECAGAFMAEAHSETVRFGGALCVLTGLLSPRSDIVFRRQLSVHYVCLGMQHQDPLARTQLQPLGELVMQLYIQGAFSVNAEQVPFVQAADALDLVASGHGRGKIVLTNFHTNEEKEERLRRRHVQLYEKAQHQYQVEETQKAAGAAAATAASEAASREAG | not soluble
